± gives the uncertainty stated by the source.
Assay: self-splicing fitness, log relative to wild type (ln ratio); higher = more splicing; Tetrahymena group I intron in knt gene, E. coli kanamycin selection, DiMSum; sequences stand for … in CUCUCU…GGAGGGAAAAGUUAUCAGGCAUGCACCUGGUAGCUAGUCUUUAAACCAAUAGAUUGCAUCGGUUUAAAAGGCAAGACCGUCAAAUUGCGGGAAAGGGGUCAACAGCCGUUCAGUACCAAGUCUCAGGGGAAACUUUGAGAUGGCCUUGCAAAGGGUAUGGUAAUAAGCUGACGGACAUGGUCCUAACCACGCAGCCAAGUCCUAAGUCAACAGAUCUUCUGUUGAUAUGGAUGCAGUUCACAGACUAAAUGUCGGUCGGGGAAGAUGUAUUCUUCUCAUAAGAUAUAGUCGGACCUCUCCUUAAUGGGAGCUAGCGGAUGAAGUGAUGCAACACUGGAGCCGCUGGGAACUAAUUUGUAUGCGAAAGUAUAUUGAUUAGUUUUGGAGUACUCGUGGUCG
How it was run: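 Library with all eight P1ex-region intron nucleotides randomised, intron inside the knt kanamycin-resistance gene on pET-22b(+), in E. coli BL21(DE3). Cells grew overnight at 37°C or 30°C on LB agar with or without 25 μg/mL kanamycin (plus 100 μg/mL carbenicillin, 50 μM IPTG, 0.2% rhamnose), in six replicate transformations. Pooled colonies were amplicon-sequenced on Illumina HiSeq 2500. DiMSum fitness is the error-weighted combination of wild-type-normalised replicate fold changes, kanamycin versus none.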

Sequence | self-splicing fitness (ln) (30 °C) | self-splicing fitness (ln) (37 °C)
UUCUAGCAAUAUUACGCGUG | -2.22 ± 0.12 | -0.708 ± 0.1
CGCUAGCAAUAUUACGCUGG | -2.63 ± 0.28 | -1.85 ± 0.36
AUCUAGCAAUAUUACGUCUU | -0.776 ± 0.077 | 0.147 ± 0.1
AAUUAGCAAUAUUACGAACU | 0.296 ± 0.1 | 0.321 ± 0.14
GUACAGCAAUAUUACGCACU | -0.597 ± 0.13 | -1.16 ± 0.24
UCUGAGCAAUAUUACGACUU | -3.11 ± 0.33 | 
GGACAGCAAUAUUACGACCA | -1.46 ± 0.13 | -0.645 ± 0.16
UACAAGCAAUAUUACGUCGU | -3.83 ± 0.18 | -2.04 ± 0.17
CACGAGCAAUAUUACGGUCU | -3.44 ± 0.19 | -1.73 ± 0.16
AGAUAGCAAUAUUACGGGGG | -3.43 ± 0.28 | -2.15 ± 0.29
UCCGAGCAAUAUUACGGGAA | -3.05 ± 0.3 | -1.65 ± 0.19
GACCAGCAAUAUUACGGUGC | -2.31 ± 0.067 | -2.09 ± 0.09
UUCAAGCAAUAUUACGUCCA | -1.12 ± 0.11 | -0.803 ± 0.098
GUCAAGCAAUAUUACGGUAA | -1.28 ± 0.18 | -0.000783 ± 0.17
CGUCAGCAAUAUUACGCCCC | -0.652 ± 0.24 | -1.34 ± 0.3
AGCUAGCAAUAUUACGUUCC | -0.609 ± 0.11 | -1.76 ± 0.17
GCACAGCAAUAUUACGACUC | -0.289 ± 0.067 | 0.76 ± 0.083
AUCGAGCAAUAUUACGGUCU | -3.03 ± 0.2 | -1.77 ± 0.2
AACGAGCAAUAUUACGAUUU | -0.71 ± 0.067 | -0.294 ± 0.082
UGAUAGCAAUAUUACGCGUA | -1.74 ± 0.13 | -0.96 ± 0.13

Sequence | self-splicing fitness (ln) (30 °C) | self-splicing fitness (ln) (37 °C)
GCCCAGCAAUAUUACGUUCG | -3.71 ± 0.18 | -2.52 ± 0.22
CCCGAGCAAUAUUACGGAUA | -3.04 ± 0.22 | -2.89 ± 0.27
GUCUAGCAAUAUUACGUAAG | -1.02 ± 0.099 | -0.654 ± 0.13
UUUUAGCAAUAUUACGCUUC |  | -1.81 ± 0.34
CCUCAGCAAUAUUACGACGU | -3.17 ± 0.18 | -2.68 ± 0.24
ACCCAGCAAUAUUACGGGGA | -1.02 ± 0.053 | -0.524 ± 0.065
GGACAGCAAUAUUACGUCAU | -1.17 ± 0.095 | -0.489 ± 0.1
ACUCAGCAAUAUUACGAGGC | -3.27 ± 0.34 | -2.56 ± 0.3
AUAGAGCAAUAUUACGCGCG | -1.47 ± 0.2 | -0.725 ± 0.23
CCCGAGCAAUAUUACGAUAU | -4.76 ± 0.45 | -2.2 ± 0.22
GAGGAGCAAUAUUACGGCUU | -3.52 ± 0.37 | -2.39 ± 0.25
AUUGAGCAAUAUUACGGCAA | -1.58 ± 0.14 | -0.831 ± 0.13
UGGGAGCAAUAUUACGAUGG | -2.64 ± 0.18 | -2.77 ± 0.48
GCCUAGCAAUAUUACGUUGG | -3.78 ± 0.32 | -2.7 ± 0.25
AGCGAGCAAUAUUACGUUGG | -2.04 ± 0.12 | -3.5 ± 0.46
GAUUAGCAAUAUUACGGAAG | -2.01 ± 0.24 | -2.18 ± 0.28
CGUAAGCAAUAUUACGGUAC | -3.29 ± 0.28 | -1.78 ± 0.19
GGAUAGCAAUAUUACGAGCU | -0.723 ± 0.19 | -0.744 ± 0.14
AGCCAGCAAUAUUACGUUUC | -3.43 ± 0.18 | 
